Data reported in US7410774B1, “Compounds modulating sister chromatid separation and method for identifying same” (Boehringer Ingelheim International GmbH, priority 1999, dated 2008).

Biological target: T1, Esp1 (Saccharomyces cerevisiae, UniProt Q03018)
T1 construct: made in house; host or cells: S. cerevisiae W303 derivative overexpressing Esp1p from the GAL1-10 promoter; soluble cell extract, not purified
Assay: In vitro assay for yeast Esp1p activity (Esp1-dependent Scc1p cleavage)
Type: biochemical
Settings: yeast chromatin incubated with extract over-producing Esp1; Western blot
Method: A crude Triton X-100 insoluble chromatin preparation was obtained from yeast cells as described (Liang and Stillman, 1997). The pelleted chromatin was resuspended in yeast cell extracts that had been prepared similar to the supernatant fraction of the chromatin preparation. One tenth volume of an ATP regenerating system was added (50 mM HEPES/KOH pH-7.5, 100 mM KCl, 10 mM MgCl2, 10 mM ATP, 600 mM creatin phosphate, 1.5 mg/ml phophocreatin kinase, 1 mM DTT, 10% glycerol). Reactions were incubated for 10 min at 25° C. with shaking and stopped on ice. The chromatin fraction was separated again from the supernatant by centrifugation, and resuspended in buffer EBX (Liang and Stillman, 1997). Equivalent aliquots of supernatant and chromatin pellet were analysed by SDS-PAGE and Western blotting. Scc1-HA was detected with the anti-HA monoclonal antibody 16B12 (Boehringer Mannheim). […]
Chromatin was prepared from a strain containing Scc1p tagged with HA epitopes that was arrested in metaphase with nocodazol. The proteins in the chromatin preparation were resolved by SDS-PAGE and Scc1-HA was detected by western blotting (FIG. 2, lane 1). […] Aliquots of the supernatant fraction and the chromatin fraction of each reaction were analysed.

T1 sequence (Q03018 whole entry): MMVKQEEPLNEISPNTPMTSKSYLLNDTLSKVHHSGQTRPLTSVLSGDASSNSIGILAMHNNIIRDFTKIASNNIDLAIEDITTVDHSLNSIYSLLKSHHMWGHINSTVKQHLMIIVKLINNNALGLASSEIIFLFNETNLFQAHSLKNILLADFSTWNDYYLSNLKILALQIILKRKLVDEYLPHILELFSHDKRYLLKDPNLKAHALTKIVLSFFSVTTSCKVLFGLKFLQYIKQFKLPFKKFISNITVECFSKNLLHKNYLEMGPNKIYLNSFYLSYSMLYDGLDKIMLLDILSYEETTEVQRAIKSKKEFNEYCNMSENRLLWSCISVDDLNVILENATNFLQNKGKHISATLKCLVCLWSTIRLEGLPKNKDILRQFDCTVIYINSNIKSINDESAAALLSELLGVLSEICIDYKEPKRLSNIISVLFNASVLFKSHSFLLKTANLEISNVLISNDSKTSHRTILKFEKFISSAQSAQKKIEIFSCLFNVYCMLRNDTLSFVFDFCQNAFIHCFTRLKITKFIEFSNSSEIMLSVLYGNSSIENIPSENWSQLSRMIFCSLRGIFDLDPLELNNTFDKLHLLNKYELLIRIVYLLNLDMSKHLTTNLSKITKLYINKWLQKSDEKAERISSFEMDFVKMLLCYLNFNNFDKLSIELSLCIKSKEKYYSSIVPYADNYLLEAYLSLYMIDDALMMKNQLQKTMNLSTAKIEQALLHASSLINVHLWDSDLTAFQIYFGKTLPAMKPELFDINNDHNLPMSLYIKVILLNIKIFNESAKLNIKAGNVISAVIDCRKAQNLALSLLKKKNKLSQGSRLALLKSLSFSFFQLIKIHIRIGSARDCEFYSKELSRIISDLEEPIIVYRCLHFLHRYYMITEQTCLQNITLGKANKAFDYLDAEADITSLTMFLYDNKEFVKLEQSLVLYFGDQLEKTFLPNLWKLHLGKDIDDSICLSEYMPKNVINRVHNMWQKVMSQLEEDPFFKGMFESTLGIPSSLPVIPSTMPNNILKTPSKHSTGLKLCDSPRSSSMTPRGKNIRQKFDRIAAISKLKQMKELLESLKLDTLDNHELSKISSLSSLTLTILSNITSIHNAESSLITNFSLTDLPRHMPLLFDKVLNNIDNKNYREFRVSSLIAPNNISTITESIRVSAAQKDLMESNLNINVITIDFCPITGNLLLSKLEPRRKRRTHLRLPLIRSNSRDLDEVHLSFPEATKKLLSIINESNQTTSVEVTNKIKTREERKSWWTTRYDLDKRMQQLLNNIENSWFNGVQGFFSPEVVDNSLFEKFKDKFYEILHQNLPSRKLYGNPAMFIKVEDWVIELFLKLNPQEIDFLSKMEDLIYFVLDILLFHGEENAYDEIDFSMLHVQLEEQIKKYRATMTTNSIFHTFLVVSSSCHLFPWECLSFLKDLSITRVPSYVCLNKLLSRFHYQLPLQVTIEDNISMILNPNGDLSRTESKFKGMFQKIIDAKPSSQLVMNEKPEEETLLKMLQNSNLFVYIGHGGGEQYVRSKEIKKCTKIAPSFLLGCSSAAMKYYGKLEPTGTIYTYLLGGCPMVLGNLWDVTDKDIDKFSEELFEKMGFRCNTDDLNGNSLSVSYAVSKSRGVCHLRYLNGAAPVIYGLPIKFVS

B1: Pds1: yeast inhibitory protein binding Esp1; in vitro translated in reticulocyte lysate (protein)
chain: MMPANEDKENNIVYTGNESSGINFPQTPAHLLKRSHSNILKPPVRLDQLKRDANSNNGNTLKYIQGGKEVSPTKRLHTHAQQQGRLPLAAKDNNRSKSFIFPETSNQSKDADLPQLQNTLSIRKNDQLRKLSQISRSRSRANHNDLLSNSRKLQKYGSVLGYNALPKMKSLVLKDLADSGKNEESSDDDEGNEDSESKLGKKLQSALLKQDSSDGENELNGGLGLFNEQGGLQQLIKNSTKNEQKTKNDKSDKTDDYDIEIAPQRQEPLPYVPEGYSPFQQDDIEKLKTFNSPYKLDLEDEDDTPDKVDLLPLEQIDEEGEKDETECITRNQEEGAALPLLSKNFKEVAAVPTMELVYSEEGLDPEELEDLVT
  Esp1-dependent in vitro cleavage of Scc1p: inhibited
